From the supplement of paper PMC5998384

Tests used:
HeLa Kyoto [1] = assay: solubility change mitosis vs G1/S (difference of NP-40 vs SDS log2 ratios) (log2 ratio difference); higher = more soluble in mitosis
HeLa Kyoto [2] = assay: solubility in G1/S (NP-40 vs SDS abundance) (log2 ratio); higher = more soluble; conditions: cell cycle stage: G1/S
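For solubility change mitosis vs G1/S (difference of NP-40 vs SDS log2 ratios) in this document: synchronized HeLa Kyoto cells (double thymidine block for G1/S, nocodazole release for mitosis), protein amounts in NP-40 versus SDS lysates quantified by mass spectrometry, three biological replicates.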
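For solubility in G1/S (NP-40 vs SDS abundance) in this document: HeLa Kyoto cells arrested at G1/S by double thymidine block, proteins quantified by TMT10plex mass spectrometry in mild NP-40 versus SDS extracts, three biological replicates.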

Sequence	solubility change mitosis (log2) (HeLa Kyoto [1])	solubility in G1/S (log2) (HeLa Kyoto [2])
MLGTVKMEGHETSDWNSYYADTQEAYSSVPVSNMNSGLGSMNSMNTYMTMNTMTTSGNMTPASFNMSYANPGLGAGLSPGAVAGMPGGSAGAMNSMTAAGVTAMGTALSPSGMGAMGAQQAASMNGLGPYAAAMNPCMSPMAYAPSNLGRSRAGGGGDAKTFKRSYPHAKPPYSYISLITMAIQQAPSKMLTLSEIYQWIMDLFPYYRQNQQRWQNSIRHSLSFNDCFVKVARSPDKPGKGSYWTLHPDSGNMFENGCYLRRQKRFKCEKQPGAGGGGGSGSGGSGAKGGPESRKDPSGASNPSADSPLHRGVHGKTGQLEGAPAPGPAASPQTLDHSGATATGGASELKTPASSTAPPISSGPGALASVPASHPAHGLAPHESQLHLKGDPHYSFNHPFSINNLMSSSEQQHKLDFKAYEQALQYSPYGSTLPASLPLGSASVTTRSPIEPSALEPAYYQGVYSRPVLNTS [FOXA1]	0.0934	0.392
MLPGVGVFGTSLTARVIIPLLKDEGFAVKALWGRTQEEAEELAKEMSVPFYTSRIDEVLLHQDVDLVCINLPPPLTRQIAVKTLGIGKNVICDRTATPLDAFRMTSAAHYYPKLMSIMGNVLRFLPAFVRMKQLIEEGYVGEPLVCEVQVHGGSLLGKKYNWSCDDLMGGGGLHSVGTYIIDLLTFLTGQKAVKVHGLLKTFVKQTDHIKGIRQITSDDFCTFQMVLEGGVCCTVTLNFNVPGEFKQDVTVVGSAGRLLAVGTDLYGQRNSAPEQELLVQDATPVSNSLLPEKAFSDIPSPYLRGTIKMMQAVRQAFQDQDDRRTWDGRPLTMAATFDDCLYALCVVDTIKRSSQTGEWQNIAIMTEEPELSPAYLISEAMRRSRMSLYC [GFOD1]	-0.244	-0.0575
MLPPMALPSVSWMLLSCLMLLSQVQGEEPQRELPSARIRCPKGSKAYGSHCYALFLSPKSWTDADLACQKRPSGNLVSVLSGAEGSFVSSLVKSIGNSYSYVWIGLHDPTQGTEPNGEGWEWSSSDVMNYFAWERNPSTISSPGHCASLSRSTAFLRWKDYNCNVRLPYVCKFTD [PAP1]	-0.21	0.102
MLRSTGFFRAIDCPYWSGAPGGPCRRPYCHFRHRGARGSGAPGDGGEAPPAAGLGYDPYNPELPKPPAQRENGTLGLGEEPRPDVLELELVNQAIEAVRSEVELEQRRYRELLETTREHRSAEAPALAPRGPNASPTVGPDEDAFPLAFDYSPGSHGLLSPDAGYQPTPLAAPAEPGSKYSLASLDRGQGRGGGGGGALEYVPKAVSQPRRHSRPVPSGKYVVDNSRPPTDLEYDPLSNYSARHLSRASSRDERAAKRPRGSRGSEPYTPAPKKLCDPFGSCDARFSDSEDEAATVPGNEPTTASTPKARADPEIKATGQPPSKEGLEAEGGGLRETKETAVQCDVGDLQPPPAKPASPAQVQSSQDGGCPKEGKPKKKKTGAPPAPSCKDGAQGKDKTKDKGRGRPVEKPRADKKGPQASSPRRKAERPEGTKKKPSSATPVATSGKGRPDRPARRPSPTSGDSRPAAGRGPPRPLQLPDRKSTKAPSGKLVERKARSLDEGASQDAPKLKKRALSHADLFGDESEDEAAGPGVPSVWPSALPSLSSDSDSDSDSSLGFPEAQGPPKRLKASPPPSPAPSSSSSSSSSTSSAGADVDYSALEKEVDFDSDPMEECLRIFNESTSVKTEDRGRLARQPPKEEKSEEKGLSGLTTLFPGQKRRISHLSKQGQEVEPPRRGPAVPPARPPTAQEVCYLRAQQAQRASASLLQAPARLAEKSPSVHISAPGEKRRIAHIPNPRLAAAPTGAKRTLAASGSQSSNGPEPGGQQLKTRTLSGMASKTTTTIIPKRIAHSPSLQSLKKPIIPKEFGGKVPTVIRQRYLNLFIEECLKFCTSNQEAIEKALNEEKVAYDRSPSKNIYLNVAVNTLKKLRGLAPSAVPGLSKTSGRRVVSHEVVLGGRLAAKTSFSLSRPSSPRVEDLKGAALYSRLREYLLTQDQLKENGYPFPHPERPGGAIIFTAEEKRPKDSSCRTCCRCGTEYLVSSSGRCIRDEECYYHWGRLRRNRVAGGWETQYMCCSAAAGSVGCQVAKQHVQDGRKERLEGFVKTFEKELSGDTHPGIYALDCEMSYTTYGLELTRVTVVDTDVHVVYDTFVKPDNEIVDYNTRFSGVTEADLADTSVTLRDVQAVLLSMFSADTILIGHSLESDLLALKVIHSTVVDTSVLFPHRLGLPYKRSLRNLMADYLRQIIQDNVDGHSSSEDAGACMHLVIWKVREDAKTKR [REXO1]	-0.0256	-0.201
MLRVVSWNINGIRRPLQGVANQEPSNCAAVAVGRILDELDADIVCLQETKVTRDALTEPLAIVEGYNSYFSFSRNRSGYSGVATFCKDNATPVAAEEGLSGLFATQNGDVGCYGNMDEFTQEELRALDSEGRALLTQHKIRTWEGKEKTLTLINVYCPHADPGRPERLVFKMRFYRLLQIRAEALLAAGSHVIILGDLNTAHRPIDHWDAVNLECFEEDPGRKWMDSLLSNLGCQSASHVGPFIDSYRCFQPKQEGAFTCWSAVTGARHLNYGSRLDYVLGDRTLVIDTFQASFLLPEVMGSDHCPVGAVLSVSSVPAKQCPPLCTRFLPEFAGTQLKILRFLVPLEQSPVLEQSTLQHNNQTRVQTCQNKAQVRSTRPQPSQVGSSRGQKNLKSYFQPSPSCPQASPDIELPSLPLMSALMTPKTPEEKAVAKVVKGQAKTSEAKDEKELRTSFWKSVLAGPLRTPLCGGHREPCVMRTVKKPGPNLGRRFYMCARPRGPPTDPSSRCNFFLWSRPS [APEX2]	-0.0093	0.0896
MLSPQRALLCNLNHIHLQHVSLGLHLSRRPELQEGPLSTPPPPGDTGGKESRGPCSGTLVDANSNSPAVPCRCCQEHGPGLENRQDPSQEEEGAASPSDPGCSSSLSSCSDLSPDESPVSVYLRDLPGDEDAHPQPSIIPLEQGSPLASAGPGTCSPDSFCCSPDSCSGASSSPDPGLDSNCNALTTCQDVPSPGLEEEDERAEQDLPTSELLEADDGKIDAGKTEPSWKINPIWKIDTEKTKAEWKTTENNNTGWKNNGNVNSSWKSEPEKFDSGWKTNTRITDSGSKTDAGKIDGGWRSDVSEEPVPHRTITSFHELAQKRKRGPGLPLVPQAKKDRSDWLIVFSPDTELPPSGSPGGSSAPPREVTTFKELRSRSRAPAPPVPPRDPPVGWALVPPRPPPPPVPPRRKKNRPGLQPIAEGQSEEGRAVSPAAGEEAPAAKEPGAQAGLEVRSSWSFAGVPGAQRLWMAEAQSGTGQLQEQKKGLLIAVSVSVDKIISHFGAARNLVQKAQLGDSRLSPDVGHLVLTTLCPALHALVADGLKPFRKDLITGQRRSSPWSVVEASVKPGSSTRSLGTLYSQVSRLAPLSSSRSRFHAFILGLLNTKQLELWFSSLQEDAGLLSLLYLPTGFFSLARGGCPSLSTELLLLLQPLSVLTFHLDLLFEHHHHLPLGPPQAPAPPGPPPALQQTMQAMLHFGGRLAQSLRGTSKEAASDPSDSPNLPTPGSWWEQLTQASRVYASGGTEGFPLSRWAPGRHGTAAEEGAQERPLPTDEMAPGRGLWLGRLFGVPGGPAENENGALKSRRPSSWLPPTVSVLALVKRGAPPEMPSPQELEASAPRMVQTHRAVRALCDHTAARPDQLSFRRGEVLRVITTVDEDWLRCGRDGMEGLVPVGYTSLVL [RUSC1]	-0.133	0.182
MMFGGYETIEAYEDDLYRDESSSELSVDSEVEFQLYSQIHYAQDLDDVIREEEHEEKNSGNSESSSSKPNQKKLIVLSDSEVIQLSDGSEVITLSDEDSIYRCKGKNVRVQAQENAHGLSSSLQSNELVDKKCKSDIEKPKSEERSGVIREVMIIEVSSSEEEESTISEGDNVESWMLLGCEVDDKDDDILLNLVGCENSVTEGEDGINWSISDKDIEAQIANNRTPGRWTQRYYSANKNIICRNCDKRGHLSKNCPLPRKVRRCFLCSRRGHLLYSCPAPLCEYCPVPKMLDHSCLFRHSWDKQCDRCHMLGHYTDACTEIWRQYHLTTKPGPPKKPKTPSRPSALAYCYHCAQKGHYGHECPEREVYDPSPVSPFICYYDDKYEIQEREKRLKQKIKVLKKNGVIPEPSKLPYIKAANENPHHDIRKGRASWKSNRWPQENKETQKEMKNKNRNWEKHRKADRHREVDEDFPRGPKTYSSPGSFKTQKPSKPFHRSSHYHTSREDKSPKEGKRGKQKKKERCWEDDDNDNLFLIKQRKKKS [ZCCHC7]	0.926	-2.02
MMGSKMASASRVVQVVKPHTPLIRFPDRRDNPKPNVSEALRSAGLPSHSSVISQHSKGSKSPDLLMYQGPPDTAEIIKTLPQKYRRKLVSQEEMEFIQRGGPE [MRPS36]	0.401	0.138
MMLSRAKPAVGRGVQHTDKRKKKGRKIPKLEELLSKRDFTGAITLLEFKRHVGEEEEDTNLWIGYCAFHLGDYKRALEEYENATKEENCNSEVWVNLACTYFFLGMYKQAEAAGFKASKSRLQNRLLFHLAHKFNDEKKLMSFHQNLQDVTEDQLSLASIHYMRSHYQEAIDIYKRILLDNREYLALNVYVALCYYKLDYYDVSQEVLAVYLQQIPDSTIALNLKACNHFRLYNGRAAEAELKSLMDNASSSFEFAKELIRHNLVVFRGGEGALQVLPPLVDVIPEARLNLVIYYLRQDDVQEAYNLIKDLEPTTPQEYILKGVVNAALGQEMGSRDHMKIAQQFFQLVGGSASECDTIPGRQCMASCFFLLKQFDDVLIYLNSFKSYFYNDDIFNFNYAQAKAATGNTSEGEEAFLLIQSEKMKNDYIYLSWLARCYIMNKKPRLAWELYLKMETSGESFSLLQLIANDCYKMGQFYYSAKAFDVLERLDPNPEYWEGKRGACVGIFQMIIAGREPKETLREVLHLLRSTGNTQVEYMIRIMKKWAKENRVSI [TTC26]	-0.0547	-0.122
MMPFGKISQQLCGVKKLPWSCDSRYFWGWLNAVFNKVDYDRIRDVGPDRAASEWLLRCGAMVRYHGQERWQKDYNHLPTGPLDKYKIQAIDATDSCIMSIGFDHMEGLEHVEKIRLCKCHYIEDDCLLRLSQLENLQKTILEMEIISCGNITDKGIIALRHLRNLKYLLLSDLPGVREKENLVQAFKTALPSLELKLQLK [ATP5S]	-0.136	-0.164
MMSEHDLADVVQIAVEDLSPDHPVVLENHVVTDEDEPALKRQRLEINCQDPSIKTICLRLDSIEAKLQALEATCKSLEEKLDLVTNKQHSPIQVPMVAGSPLGATQTCNKVRCVVPQTTVILNNDRQNAIVAKMEDPLSNRAPDSLENVISNAVPGRRQNTIVVKVPGQEDSHHEDGESGSEASDSVSSCGQAGSQSIGSNVTLITLNSEEDYPNGTWLGDENNPEMRVRCAIIPSDMLHISTNCRTAEKMALTLLDYLFHREVQAVSNLSGQGKHGKKQLDPLTIYGIRCHLFYKFGITESDWYRIKQSIDSKCRTAWRRKQRGQSLAVKSFSRRTPNSSSYCPSEPMMSTPPPASELPQPQPQPQALHYALANAQQVQIHQIGEDGQVQVGHLHIAQVPQGEQVQITQDSEGNLQIHHVGQDGQLLEATRIPCLLAPSVFKASSGQVLQGAQLIAVASSDPAAAGVDGSPLQGSDIQVQYVQLAPVSDHTAGAQTAEALQPTLQPEMQLEHGAIQIQ [BANP]	0.0132	0.417
